# B1: Protein OPY2 (Saccharomyces cerevisiae), Q06810 (parent)
# chain: MSSSSKASASSSLSSTATSSTSATRGSDGCVVCDSTASCPVCASGEYCVMTSLTCDKCPSTYCAKQSDSQLSSLSSSSSSSSSSNSNEKTSLIVGFTVGIVGGAMLIALVALYFINKRYWKPKRQKNKALKLEEASQSYGNEEEYFDDEDDDDEDDEDDGGMRKDESHTLFNTSLVPPTLNVPGNRSSASTTRTRASNILPIAYIPGVTSGLSTDKLQSKLRSSSKRQNAAGDIRSHITLGSSILDGLDDEDDEHNQVLNKDADDNLITAIRAKPKLVQIAEEESDKEIQDLDVIEEQTEADDLSHMAKSEASHGNNDEDDDEEGSFILDLEIPESIRESTQGSRTESPFEDKFEIHDER
# partner: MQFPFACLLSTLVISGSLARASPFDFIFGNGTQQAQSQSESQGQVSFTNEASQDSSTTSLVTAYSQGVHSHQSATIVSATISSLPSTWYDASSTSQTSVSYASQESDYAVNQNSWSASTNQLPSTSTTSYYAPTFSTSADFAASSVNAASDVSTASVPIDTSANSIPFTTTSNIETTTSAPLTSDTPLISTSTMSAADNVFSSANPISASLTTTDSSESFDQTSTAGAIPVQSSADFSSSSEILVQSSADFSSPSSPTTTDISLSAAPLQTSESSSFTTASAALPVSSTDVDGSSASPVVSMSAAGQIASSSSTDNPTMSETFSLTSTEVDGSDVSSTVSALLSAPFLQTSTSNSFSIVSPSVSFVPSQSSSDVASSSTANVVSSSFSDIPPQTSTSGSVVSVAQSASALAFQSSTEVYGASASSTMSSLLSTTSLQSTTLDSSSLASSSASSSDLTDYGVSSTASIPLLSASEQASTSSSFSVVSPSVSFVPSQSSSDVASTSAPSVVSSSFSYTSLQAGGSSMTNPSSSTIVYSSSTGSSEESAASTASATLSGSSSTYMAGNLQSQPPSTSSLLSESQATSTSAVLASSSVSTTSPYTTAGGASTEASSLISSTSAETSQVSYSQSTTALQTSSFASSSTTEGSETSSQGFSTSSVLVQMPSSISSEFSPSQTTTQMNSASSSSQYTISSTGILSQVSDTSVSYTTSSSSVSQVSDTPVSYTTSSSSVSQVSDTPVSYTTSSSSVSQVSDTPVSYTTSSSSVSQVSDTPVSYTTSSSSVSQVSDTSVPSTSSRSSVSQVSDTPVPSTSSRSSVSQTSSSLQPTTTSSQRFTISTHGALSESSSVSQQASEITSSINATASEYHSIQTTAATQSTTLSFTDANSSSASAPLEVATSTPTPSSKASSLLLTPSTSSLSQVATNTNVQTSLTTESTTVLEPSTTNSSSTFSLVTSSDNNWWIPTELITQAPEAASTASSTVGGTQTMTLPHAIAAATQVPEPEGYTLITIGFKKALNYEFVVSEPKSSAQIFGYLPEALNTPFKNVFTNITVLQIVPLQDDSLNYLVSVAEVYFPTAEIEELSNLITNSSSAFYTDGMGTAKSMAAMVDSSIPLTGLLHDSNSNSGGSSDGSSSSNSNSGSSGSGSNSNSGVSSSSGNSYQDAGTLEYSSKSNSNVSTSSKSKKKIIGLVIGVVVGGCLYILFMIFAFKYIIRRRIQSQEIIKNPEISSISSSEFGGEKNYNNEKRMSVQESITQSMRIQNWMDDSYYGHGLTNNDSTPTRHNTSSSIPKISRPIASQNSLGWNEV
# Variants of: B1
# Details: with msb2_yeast MSB2, P32334
row,Variant,effect of a mutation on the interaction
1,MSSSSKASASSSLSSTATSSTSATRGSDGAVVCDSTASCPVAASGEYCVMTSLTCDKCPSTYCAKQSDSQLSSLSSSSSSSSSSNSNEKTSLIVGFTVGIVGGAMLIALVALYFINKRYWKPKRQKNKALKLEEASQSYGNEEEYFDDEDDDDEDDEDDGGMRKDESHTLFNTSLVPPTLNVPGNRSSASTTRTRASNILPIAYIPGVTSGLSTDKLQSKLRSSSKRQNAAGDIRSHITLGSSILDGLDDEDDEHNQVLNKDADDNLITAIRAKPKLVQIAEEESDKEIQDLDVIEEQTEADDLSHMAKSEASHGNNDEDDDEEGSFILDLEIPESIRESTQGSRTESPFEDKFEIHDER [C30A;C42A],disrupting interaction strength
2,MSSSSKASASSSLSSTATSSTSATRGSDGCVVADSTASCPVCASGEYCVMTSLTCDKAPSTYCAKQSDSQLSSLSSSSSSSSSSNSNEKTSLIVGFTVGIVGGAMLIALVALYFINKRYWKPKRQKNKALKLEEASQSYGNEEEYFDDEDDDDEDDEDDGGMRKDESHTLFNTSLVPPTLNVPGNRSSASTTRTRASNILPIAYIPGVTSGLSTDKLQSKLRSSSKRQNAAGDIRSHITLGSSILDGLDDEDDEHNQVLNKDADDNLITAIRAKPKLVQIAEEESDKEIQDLDVIEEQTEADDLSHMAKSEASHGNNDEDDDEEGSFILDLEIPESIRESTQGSRTESPFEDKFEIHDER [C33A;C58A],decreasing interaction strength
3,MSSSSKASASSSLSSTATSSTSATRGSDGCVVADSTASAPVCASGEYCVMTSLTCDKCPSTYCAKQSDSQLSSLSSSSSSSSSSNSNEKTSLIVGFTVGIVGGAMLIALVALYFINKRYWKPKRQKNKALKLEEASQSYGNEEEYFDDEDDDDEDDEDDGGMRKDESHTLFNTSLVPPTLNVPGNRSSASTTRTRASNILPIAYIPGVTSGLSTDKLQSKLRSSSKRQNAAGDIRSHITLGSSILDGLDDEDDEHNQVLNKDADDNLITAIRAKPKLVQIAEEESDKEIQDLDVIEEQTEADDLSHMAKSEASHGNNDEDDDEEGSFILDLEIPESIRESTQGSRTESPFEDKFEIHDER [C33A;C39A],disrupting interaction strength
4,MSSSSKASASSSLSSTATSSTSATRGSDGAVVCDSTASCPVCASGEYCVMTSLTADKCPSTYCAKQSDSQLSSLSSSSSSSSSSNSNEKTSLIVGFTVGIVGGAMLIALVALYFINKRYWKPKRQKNKALKLEEASQSYGNEEEYFDDEDDDDEDDEDDGGMRKDESHTLFNTSLVPPTLNVPGNRSSASTTRTRASNILPIAYIPGVTSGLSTDKLQSKLRSSSKRQNAAGDIRSHITLGSSILDGLDDEDDEHNQVLNKDADDNLITAIRAKPKLVQIAEEESDKEIQDLDVIEEQTEADDLSHMAKSEASHGNNDEDDDEEGSFILDLEIPESIRESTQGSRTESPFEDKFEIHDER [C30A;C55A],decreasing interaction strength

# — IntAct's records for PubMed 26598606
